Target: T1, Saccharomyces cerevisiae Importin β (Kap95p) (S. cerevisiae, UniProt Q06142 1-861)
T1 sequence (looked up): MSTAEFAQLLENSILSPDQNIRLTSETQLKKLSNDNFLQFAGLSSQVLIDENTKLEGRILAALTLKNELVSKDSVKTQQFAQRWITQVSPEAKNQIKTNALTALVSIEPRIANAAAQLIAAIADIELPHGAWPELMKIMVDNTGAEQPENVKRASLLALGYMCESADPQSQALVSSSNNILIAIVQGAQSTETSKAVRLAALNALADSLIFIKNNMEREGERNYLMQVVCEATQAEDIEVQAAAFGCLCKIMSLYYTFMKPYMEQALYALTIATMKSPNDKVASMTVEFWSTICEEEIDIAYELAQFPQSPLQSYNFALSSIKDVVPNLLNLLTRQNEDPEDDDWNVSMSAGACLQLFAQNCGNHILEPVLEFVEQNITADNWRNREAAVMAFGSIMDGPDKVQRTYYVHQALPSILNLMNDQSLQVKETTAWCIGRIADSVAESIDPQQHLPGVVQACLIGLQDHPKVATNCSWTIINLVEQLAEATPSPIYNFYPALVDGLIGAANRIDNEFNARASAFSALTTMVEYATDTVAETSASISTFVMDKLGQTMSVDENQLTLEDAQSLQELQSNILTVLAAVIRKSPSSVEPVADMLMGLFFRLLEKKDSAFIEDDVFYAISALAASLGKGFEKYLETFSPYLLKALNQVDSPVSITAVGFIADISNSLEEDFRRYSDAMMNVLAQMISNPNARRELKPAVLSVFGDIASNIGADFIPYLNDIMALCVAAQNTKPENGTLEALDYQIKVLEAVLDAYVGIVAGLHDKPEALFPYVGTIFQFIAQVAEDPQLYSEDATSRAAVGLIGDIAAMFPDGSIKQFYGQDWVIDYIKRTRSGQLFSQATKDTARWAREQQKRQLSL
Assay: NTR⋅cargo complex formed from purified proteins, followed by the fluorescent cargo's entry into FG particles (confocal microscopy); 1 µM complex (referring to substrate monomers) added to FG particles; no separate test of complex formation is described
Details: both partners purified

B1: Atto488-labelled IBB domain of S. cerevisiae Srp1p (domain or fragment)
chain: DNGTDSSTSKFVPEYRRTNFKNKGRFSADELRRRRDTQQVELRKAKRDEALAKRRNFIPPTDC
modifications: also: Atto488 label, position not given here
notes: IBB domain of Srp1p (importin α), S. cerevisiae, residues 2-63; C-terminal cysteine of the construct; The label probably sits on the C-terminal cysteine; also called ScIBB; IBB-Atto488; source: E. coli (BLR or NEB Express), purified (native Ni(II) chelate chromatography, tag removed); not shown: His14, N-terminal, cleaved; ZZ, N-terminal, cleaved; brNEDD8, N-terminal, cleaved
  binding result: binds

— article PMC4283134, “Nup98 FG domains from diverse species spontaneously phase-separate into particles with nuclear pore-like permselectivity” (eLife, 2015)
